Results on two substances are retold here after paper PMC3791423.

The target in experiment [1] is PspA_(1–186) (E. coli) (UniProt P0AFM6).
Experiment [2] concerns the target single-chain linked PspF_(1–275) WT/W56A dimer (E. coli) (UniProt P37344). Kind of experiment: SEC; linked PspF_(1–275) dimers injected at 70 μM, without and with PspA_(1–186), no nucleotide, 4 °C, Yarra Sec-S3000 column; apparent oligomers.
Experiment [3] deals with PspA_(1–186) (E. coli) (UniProt P0AFM6). The experiment is described as above.
Experiment [4] addresses single-chain linked PspF_(1–275) WT/WT dimer (E. coli) (UniProt P37344). The experiment is described as above.

On to “single-chain linked PspF_(1–275) WT/W56A dimer (from UniProt P37344 1-275; P37344 1-275)”, for which the reduction of RPO formation (supercoiled nifH promoter) in the presence of PspA (1–186) with PspA_(1–186) (E. coli) [1] turned out to be 10%. Also, in experiment [2], the stoichiometry N (PspF (1–275) subunits) stood at 6.
As for “single-chain linked PspF_(1–275) WT/WT dimer (from UniProt P37344 1-275; P37344 1-275)”, in the experiment with PspA_(1–186) (E. coli) [1], the reduction of RPO formation (supercoiled nifH promoter) in the presence of PspA (1–186) was 100%. The stoichiometry N (PspA (1–186) subunits per PspF hexamer) in the experiment with PspA_(1–186) (E. coli) [3] turned out to be 6. The stoichiometry N (PspF (1–275) subunits) in experiment [4] was 6.
